Measurements taken from patent US20260055188A1 (SHENGHE CHINA BIOPHARMACEUTICAL, published 2026).
Like-named read-outs stand apart in the source and are kept apart here.

T1: Human-TNFR2-His (manufacturer: SINO, CAT: 10417-H08H) (human, UniProt P20333 23-257)
T1 construct: Bought protein; also called human TNFR2 protein; TNFR2 protein; not shown: His tag
T1 sequence (looked up): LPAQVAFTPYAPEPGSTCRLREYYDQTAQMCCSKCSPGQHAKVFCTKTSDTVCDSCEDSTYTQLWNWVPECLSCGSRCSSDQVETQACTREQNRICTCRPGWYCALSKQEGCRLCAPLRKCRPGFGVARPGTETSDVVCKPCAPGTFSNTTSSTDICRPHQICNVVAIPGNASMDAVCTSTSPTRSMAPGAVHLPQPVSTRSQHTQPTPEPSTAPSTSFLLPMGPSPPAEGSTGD

T2: Human-B7H3 Fc (manufacturer: Acro, CAT: B73-H5253) (human, UniProt Q5ZPR3-2 29-245)
T2 construct: Bought protein; not shown: Fc
T2 sequence (looked up): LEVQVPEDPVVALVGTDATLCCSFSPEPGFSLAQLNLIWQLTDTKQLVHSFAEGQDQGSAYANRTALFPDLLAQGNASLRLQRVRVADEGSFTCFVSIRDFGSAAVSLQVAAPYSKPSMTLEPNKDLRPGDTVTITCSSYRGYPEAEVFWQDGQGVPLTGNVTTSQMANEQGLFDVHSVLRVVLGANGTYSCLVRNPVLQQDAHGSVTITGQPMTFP

T3: Human-B7H3 His (manufacturer: Acro, CAT: TB73-H52E2) (human, UniProt Q5ZPR3-2 29-245)
T3 construct: also called human B7H3 protein; B7H3 protein; not shown: His tag
T3 sequence (looked up): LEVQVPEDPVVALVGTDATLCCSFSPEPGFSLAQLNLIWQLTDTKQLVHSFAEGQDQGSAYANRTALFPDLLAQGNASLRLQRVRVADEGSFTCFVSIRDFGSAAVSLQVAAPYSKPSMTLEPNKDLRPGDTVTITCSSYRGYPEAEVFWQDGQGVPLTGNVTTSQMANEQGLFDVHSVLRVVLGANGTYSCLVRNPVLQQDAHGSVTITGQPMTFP

T4: human CD24 on MCF-7 tumor cells (human, UniProt P25063 27-59)
T4 construct: whole, on cells; also called CD24 protein; MCF-7 tumor cells with high expression of human CD24
T4 chain (looked up): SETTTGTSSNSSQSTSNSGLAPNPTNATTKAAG


Legend:
[1] = target: T1, Human-TNFR2-His (manufacturer: SINO, …); assay: BLI, antibody on AHC sensor, 100 nM human-TNFR2-His in solution
Experimental: The AHC sensor was soaked in 0.02% PBST (0.02% Tween 20, pH 7.4, 1×PBS) as a buffer for 600 s to remove the sucrose covering the sensor surface. The AHC sensor was equilibrated with 0.02% PBST (0.02% Tween 20, pH 7.4, 1×PBS) as a buffer for 60 s, the antibody in the sample plate was solidified for 300 s, and the secondary equilibration buffer was used for 180 s. 100 nM human-TNFR2-His (manufacturer: SINO, CAT: 10417-H08H, LOT: LC12SE2902) protein was bound to the antibody for 300 s and then dissociated for 600 s. After dissociation, 10 mM glycine (pH 2.0) was used as a regeneration buffer for 30 s. The sensor was regenerated with 10 mM glycine (pH 2.0).

[2] = target: T1, Human-TNFR2-His (manufacturer: SINO, …); assay: ELISA: Human-TNFR2-His coated (0.3 µg/mL), antibody titrated, goat anti-human IgG Fc detection, OD450 (Example 10)
Experimental: (§1) Human-TNFR2-His (manufacturer: SINO, CAT: 10417-H08H, LOT: LC12SE2902) was diluted to 0.3 μg/mL with a coating solution (1×PBS, pH7.4), and coated into a 96-well ELISA plate at 100 μL/well overnight at 4° C. The coating solution was poured off. Each well was washed with 1×PBST at 300 μL, washed 4 times with a plate washer, and patted dry on a flat paper. It was blocked with 3% skim milk powder at 300 μL/well, and incubated at 37° C. for 1 h. The blocking solution was poured off, washed 4 times with a plate washer, and patted dry on a flat paper. Negative control and positive control were set up. […] The positive control and antibody were diluted to 10 μg/mL with 3% skim milk powder as the starting concentration, and then diluted by 3-fold gradient (11 gradients in total). A blank well was set up and only the diluent was added. It was incubated at 37° C. for 1 h at 100 μL/well. The liquid in the well was discarded, washed 4 times with a plate washer, and patted dry on a flat paper. Goat anti-human IgG Fc was diluted with 3% skim milk powder at 1:20000, and incubated at 37° C. for 1 h at 100 μL/well. It was washed 6 times with a plate washer, and patted dry on a flat paper. TMB color developing solution was added at 100 μL/well, and wrapped with aluminum foil. Color development was performed at 37° C. in the dark for 8 min. […] Readings were taken at 450 nm on an ELISA reader.

[3] = target: T1, Human-TNFR2-His (manufacturer: SINO, …); assay: as above; remark: listed apart in the source
Experimental: as §1

[4] = target: T2, Human-B7H3 Fc (manufacturer: Acro, CAT: …); assay: bridging ELISA: Human-B7H3 Fc coated (0.5 µg/mL), antibody titrated, then Human-TNFR2-His (0.5 µg/mL), HRP-labeled anti-His detection, OD450 (Example 4); half-maximal concentration of the bridging signal
Experimental: Human-B7H3 Fc (manufacturer: Acro, CAT: B73-H5253, LOT: 2053b-201XF1-UD) was diluted to 0.5 μg/mL with a coating solution (1×PBS, pH7.4) and coated into a 96-well ELISA plate at 100 μL/well at 4° C. overnight. The coating solution was poured off. Each well was washed with 1×PBST at 300 μL, washed 4 times with a plate washer, and patted dry on a flat paper. It was blocked with 3% skim milk powder at 300 μL/well, and incubated at 37° C. for 1 h. The blocking solution was poured off, washed 4 times with a plate washer, and patted dry on a flat paper. […] Starting at 300 nM, which was used as the initial concentration for 3-fold dilution, a total of 8 gradients were diluted, and a blank well was set up, and only diluent was added. It was incubated at 37° C. for 1 h at 100 μL/well. The liquid in the well was discarded, washed 4 times with a plate washer, and patted dry on a flat paper. Human-TNFR2-His (manufacturer: Sino, CAT: 10417-H08H, LOT: LC12SE2902) was diluted to 0.5 μg/mL, 100 μL was added to each well, and incubated at room temperature for 1 h. The plate was washed 3 times with PBST, and then the HRP-labeled his antibody was diluted with sample diluent at 1:10000, 100 μL was added to each well, and incubated at room temperature for 1 h. It was washed 6 times with a plate washer, and patted dry on a flat paper. […] Readings were taken at 450 nm on an ELISA reader.

[5] = target: T3, Human-B7H3 His (manufacturer: Acro, …); assay: ELISA: Human-B7H3 His coated (0.3 µg/mL), antibody titrated, goat anti-human IgG Fc detection, OD450 (Example 3)
Experimental: Human-B7H3 His (manufacturer: Acro, CAT: TB73-H52E2, LOT: 2052-21AXF1-YS) was diluted to 0.3 μg/mL with a coating solution (1×PBS, pH7.4), and coated into a 96-well ELISA plate at 100 μL/well overnight at 4° C. The coating solution was poured off. Each well was washed with 1×PBST at 300 μL, washed 4 times with a plate washer, and patted dry on a flat paper. It was blocked with 3% skim milk powder at 300 μL/well, and incubated at 37° C. for 1 h. The blocking solution was poured off, washed 4 times with a plate washer, and patted dry on a flat paper. Negative control and positive control were set up. […] The variable region of the antibody sequence of the positive control consists of SEQ ID NO: 1 and SEQ ID NO: 5, with the constant region of human IgG1 added (SEQ ID NO: 85 and SEQ ID NO: 86). The positive control and antibody were diluted to 10 μg/mL with 3% skim milk powder as the starting concentration, and then diluted by 3-fold gradient (11 gradients in total). A blank well was set up and only the diluent was added. It was incubated at 37° C. for 1 h at 100 μL/well. The liquid in the well was discarded, washed 4 times with a plate washer, and patted dry on a flat paper. Goat anti-human IgG Fc was diluted with 3% skim milk powder at 1:20000, and incubated at 37° C. for 1 h at 100 μL/well. It was washed 6 times with a plate washer, and patted dry on a flat paper. TMB color developing solution was added at 100 μL/well, and wrapped with aluminum foil. Color development was performed at 37° C. in the dark for 8 min. Termination solution 1M HCl was added to terminate the color development reaction at 100 μL/well. Readings were taken at 450 nm on an ELISA reader.

[6] = target: T3, Human-B7H3 His (manufacturer: Acro, …); assay: BLI, antibody on AHC sensor, 100 nM His-tagged protein (Acro TB73-H52E2) in solution
[7] = target: T4, human CD24 on MCF-7 tumor cells; assay: flow cytometry on MCF-7 cells, 150 nM antibody, anti-human IgG Fc detection
Experimental: 100 μL of dilution was added to the blank control group, and 100 μL of fluorescent secondary antibody dilution was added to the rest of the sample groups respectively. After incubation for 0.5 h at room temperature and 4° C. protected from light, PBS was added to wash and centrifuged (3000 rpm, 3 min) twice. After discarding the supernatant, 80 μL of the dilution was added and resuspended.

Row | Binder | Kd [1] [nM] | koff [1] [s⁻¹] | kon [1] [M⁻¹ s⁻¹] | EC50 (read off the curve) [2] [nM] | EC50 (read off the curve) [3] [nM] | EC50 (read off the curve) [4] [nM] | EC50 (read off the curve) [5] [nM] | Kd [6] [nM] | koff [6] [s⁻¹] | kon [6] [M⁻¹ s⁻¹] | E1 Mean PE-A [7]
1 | TB-C1 (bispecific antibody, human IgG1, kappa, also called antibody TB-C1) light: DIVMTQSPATLSVTPGDRVSLSCRASQSISDYLHWYQQKSHESPRLLIKYASQSISGIPSRFSGSGSGSDFTLSINSVEPEDVGVYYCQNGHSFPLTFGAGTKLELKRTVAAPSVFIFPPSDEQLKSGTASVVCLLNNFYPREAKVQWKVDNALQSGNSQESVTEQDSKDSTYSLSSTLTLSKADYEKHKVYACEVTHQGLSSPVTKSFNRGEC heavy: not shown | 2.89 | 0.000665 | 230000 | – | – | ~0.5 | ~0.3 | 159 | 0.00174 | 10900 | –
2 | Positive control 2 (variable region SEQ ID NO: 41) (VHH, not shown: it was loaded on an AHC (anti-human Fc) sensor) VHH: EVQLVESGGGLVQPGGSLRLSCAASGSRLDYYAVAWFRQAPGKEREEVSCITYSGGSTNYAESVKGRFTISRDNSKNTLYLQMNSLRAEDTAVYYCTTEPYGSSCPLSGYDTWGQGTLVTVSS | 1.61 | 0.000427 | 266000 | ~0.05 | – | – | – | – | – | – | –

The next lines start with the values.

Row | Kd [1] [nM] | koff [1] [s⁻¹] | kon [1] [M⁻¹ s⁻¹] | EC50 (read off the curve) [2] [nM] | EC50 (read off the curve) [3] [nM] | EC50 (read off the curve) [4] [nM] | EC50 (read off the curve) [5] [nM] | Kd [6] [nM] | koff [6] [s⁻¹] | kon [6] [M⁻¹ s⁻¹] | E1 Mean PE-A [7] | Binder
3 | 0.324 | 0.000127 | 391000 | ~0.03 | ~0.03 | – | – | – | – | – | – | anti-TNFR2 control antibody (variable region SEQ ID NO: 83 and SEQ ID NO: 84, constant region of human IgG1 SEQ ID NO: 85 and SEQ ID NO: 86) (antibody, V domains shown, also called Positive control 1) VH: EVQLVQSGAEVKKPGATVKISCKVSGYSITDYLLHWVQQAPGKGLEWMGWIDPEDAKTKYGQKFQSRVTITADTSTDTAYMELSSLRSEDTAVYYCAANSGTGTMDAWGQGTLVTVSS VL: DIVMTQSPATLSVSPGERATLSCKASQNVGSNVDWYQQKPGQSPRVLIYKASIRYTGIPARFSGSGSGTEFTLTISILQSEDFAVYFCMQSKSYPITFGQGTKLEIKR
4 | – | – | – | – | – | – | – | – | – | – | 4.45e+06 | anti-CD24 control antibody (variable region SEQ ID NO: 9 and SEQ ID NO: 13, constant region of human IgG1 SEQ ID NO: 85 and SEQ ID NO: 86) (antibody, V domains shown) VH: EVQLQESGPGLVKPSQTLSLTCTVSGYSITSGYTWHWIRQFPGNKLEWIGHIQYTGNTKYNPSLESRITISRDTSKNQFSLKLSSVTAADTATYYCARGSTNSNDYWGQGTLVTVSS VL: DIVMTQSPSSLAVSLGERATINCKSSQSLLYSNDQKNYLAWYQQKPGQSPKLLIYWASTRESGVPDRFSGSGSGTDFTLTISSLQAEDVAVYYCQQYFIYPLTFGGGTKLELKR
